Square brackets hold non-standard residues; d marks the D form. Ends that are not written are not given here. hArg = N=C(N)NCCCC[C@H](N)C(=O)O; Nle = CCCC[C@H](N)C(=O)O; Aib = CC(C)(N)C(=O)O
Columns and labels:
[1] = biological target: T1, human parathyroid hormone receptor (PTHR) (human, UniProt Q03431 27-593); experiment: competition vs 125I-[Aib1,3,M]PTH(1-15), COS-7 membranes hPTHR + GsND (RG)
T1 construct: Assayed in membranes of HKRK-B7 cells or of transiently transfected COS-7 cells, or on intact HKRK-B7/HKRK-B64/COS-7 cells; RG = co-transfected with negative-dominant Galpha-s; R0 = receptor alone plus GTPgammaS; also called hPTHR; human PTH receptor
T1 sequence: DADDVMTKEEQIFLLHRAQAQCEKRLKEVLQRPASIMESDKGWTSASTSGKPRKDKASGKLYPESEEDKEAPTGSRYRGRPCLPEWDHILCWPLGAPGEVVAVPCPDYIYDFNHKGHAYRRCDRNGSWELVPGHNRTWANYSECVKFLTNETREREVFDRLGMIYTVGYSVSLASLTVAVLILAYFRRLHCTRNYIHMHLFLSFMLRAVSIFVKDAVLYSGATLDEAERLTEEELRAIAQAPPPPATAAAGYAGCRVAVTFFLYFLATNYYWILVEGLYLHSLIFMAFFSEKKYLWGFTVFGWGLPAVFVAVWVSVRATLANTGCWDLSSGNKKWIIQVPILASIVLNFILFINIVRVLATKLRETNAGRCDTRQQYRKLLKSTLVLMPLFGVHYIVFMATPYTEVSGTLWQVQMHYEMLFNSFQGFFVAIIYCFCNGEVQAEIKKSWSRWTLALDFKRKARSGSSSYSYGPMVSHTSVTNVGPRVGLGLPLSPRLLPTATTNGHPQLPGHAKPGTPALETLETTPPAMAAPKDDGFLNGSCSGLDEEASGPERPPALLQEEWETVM
Procedure: (§1) Radioligand dissociation. These studies were performed as bulk reactions in 15 mL round-bottom polystyrene snap-cap tubes (Falcon) (total reaction volume=5.0 ml). Membranes and radioligand were pre-incubated for 90 minutes to allow complex formation; the dissociation phase was then initiated by the addition of an excess of the unlabeled analog of the radioligand (5×10⁻⁷ M final concentration), with or without GTPγS (5×10⁻⁵ M). Immediately prior to this addition (t=0), and at successive time-points thereafter, 0.2 ml aliquots (30,000 cpm) were withdrawn and immediately processed by vacuum filtration, as described above. Non-specific binding was determined in parallel reaction tubes containing the unlabeled analog of the radioligand (5×10⁻⁷ M) in both the pre-incubation and dissociation phases. The specifically bound radioactivity at each time point was calculated as a percent of the radioactivity specifically bound at t=0. Equilibrium competition binding and GTPγS inhibition. […] Membranes, tracer radioligand, and various concentrations of unlabeled ligands and/or GTPγS were incubated in the wells for 90 minutes, following which, the reaction plates were processed by rapid vacuum filtration to separate bound from free radioligand, as described above. […] For both radioligands, the non-specific binding was determined in reactions containing a saturating concentration of the unlabeled analog of the radioligand. The specifically bound radioactivity was calculated as a percent of the radioactivity specifically bound in the absence of a competing ligand or GTPγS.

[2] = biological target: T1, human parathyroid hormone receptor …; experiment: ratio of R0 IC50 to RG IC50, hPTHR
[3] = biological target: T1, human parathyroid hormone receptor …; experiment: competition vs 125I-PTH(1-34) + GTPgammaS, COS-7 membranes hPTHR (R0)
Procedure: as §1

[4] = biological target: T1, human parathyroid hormone receptor …; experiment: cell-based or functional assay
[5] = biological target: T1, human parathyroid hormone receptor …; experiment: cell-based or functional assay; remark: listed apart in the source
[6] = biological target: T1, human parathyroid hormone receptor …; experiment: competition radioligand binding, human PIR RG
Procedure: (§2) Binding Studies. Binding studies were performed using cell membranes as described (Dean et al., Mol Endocrinol 20(4):931-43 (2006)). […] Reactions contained a total membrane protein concentration of 20 to 100 μg/mL, and a total radioactivity concentration of approximately 150,000 cpm/ml. Unlabeled peptide ligands and/or GTPγS (Sigma-Aldrich Inc. St. Louis, Mo.) were added to the reactions as indicated. At the end of the reaction, bound and free radioligand were separated by vacuum filtration using a 96-well vacuum filter plate and vacuum filter apparatus (Multi-Screen system with Durapore HV, […] filters; Millipore Corp., Milford, Mass.); the air-dried filters were then detached from the plate and counted for gamma radioactivity using a gamma counter.
(§3) To assess the capacities of various unlabeled peptide ligands to bind to the G protein-uncoupled and G protein-coupled PTHR conformations (R⁰ and RG, respectively), membranes were prepared from transiently transfected COS-7 cells and the following assay conditions.

[7] = biological target: T1, human parathyroid hormone receptor …; experiment: competition radioligand binding, hPTHR RG conformation
Procedure: as §2, §3

[8] = biological target: T1, human parathyroid hormone receptor …; experiment: screen, binding to human PIR R0 relative to parent PTHrP(1-28)NH; footnote not given
[9] = biological target: T1, human parathyroid hormone receptor …; experiment: competition radioligand binding, hPTHR R0 conformation
Procedure: as §2, §3

[10] = biological target: T1, human parathyroid hormone receptor …; experiment: screen, binding to human PIR RG relative to parent PTHrP(1-28)NH; footnote not given
[11] = biological target: T1, human parathyroid hormone receptor …; experiment: ratio of R0 IC50 to RG IC50, hPTHR; remark: listed apart in the source
[12] = biological target: T1, human parathyroid hormone receptor …; experiment: competition radioligand binding, human PIR R0
Procedure: as §2, §3

[13] = biological target: T1, human parathyroid hormone receptor …; experiment: competition radioligand binding, human PTH1 receptor RG
Procedure: as §2, §3

[14] = biological target: T1, human parathyroid hormone receptor …; experiment: ratio of R0 IC50 to RG IC50, human PTH1 receptor
[15] = biological target: T1, human parathyroid hormone receptor …; experiment: competition radioligand binding, human PTH1 receptor R0
Procedure: as §2, §3

[16] = biological target: T2, rat parathyroid hormone receptor (PTHR) (rat, UniProt P25961 27-591); experiment: cell-based or functional assay
T2 sequence: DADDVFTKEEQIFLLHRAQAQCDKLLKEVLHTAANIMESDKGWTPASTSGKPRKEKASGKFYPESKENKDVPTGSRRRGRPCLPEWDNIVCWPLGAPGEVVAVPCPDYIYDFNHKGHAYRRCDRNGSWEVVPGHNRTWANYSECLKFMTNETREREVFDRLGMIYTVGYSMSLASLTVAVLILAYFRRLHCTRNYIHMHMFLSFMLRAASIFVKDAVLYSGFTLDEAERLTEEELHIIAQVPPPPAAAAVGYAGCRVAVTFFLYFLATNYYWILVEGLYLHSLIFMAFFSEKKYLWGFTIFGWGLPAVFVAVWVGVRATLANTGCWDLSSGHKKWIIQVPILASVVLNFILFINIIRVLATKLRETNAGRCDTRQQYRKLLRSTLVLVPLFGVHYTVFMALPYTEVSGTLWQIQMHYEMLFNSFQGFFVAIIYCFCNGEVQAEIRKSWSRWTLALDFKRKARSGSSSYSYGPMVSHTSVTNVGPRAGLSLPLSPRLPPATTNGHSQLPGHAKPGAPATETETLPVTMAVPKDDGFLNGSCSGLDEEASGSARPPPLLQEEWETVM

[17] = biological target: T1, human parathyroid hormone receptor …; experiment: cell-based or functional assay; remark: listed apart in the source

B1: [Aib^1,3,Nle^8,Gln^10,homoarginine^11,Ala^12,Trp^14,Tyr^15]rPTH(1-15)NH2 (peptide)
peptide: [Aib]V[Aib]EIQL[Nle]HQ[hArg]AKWY-NH2
modifications: N-terminus assumed
SMILES: CCCC[C@H](NC(=O)[C@H](CC(C)C)NC(=O)[C@H](CCC(N)=O)NC(=O)[C@@H](NC(=O)[C@H](CCC(=O)O)NC(=O)C(C)(C)NC(=O)[C@@H](NC(=O)C(C)(C)N)C(C)C)[C@@H](C)CC)C(=O)N[C@@H](Cc1c[nH]cn1)C(=O)N[C@@H](CCC(N)=O)C(=O)N[C@@H](CCCCNC(=N)N)C(=O)N[C@@H](C)C(=O)N[C@@H](CCCCN)C(=O)N[C@@H](Cc1c[nH]c2ccccc12)C(=O)N[C@@H](Cc1ccc(O)cc1)C(N)=O
notes: also called [Aib^1,3,M]rPTH(1-15)NH2; [Aib^1,3,M]PTH(1-15)
With B1 the IC50 [1] was 0.74 nM, the “R0:RG” value [2] was 1400 and the IC50 [3] was 1030 nM.

B2: [Nle^8,21,Tyr^34]rPTH(1-34)NH2 (peptide)
peptide: AVSEIQLXHNLGKHLASVERXQWLRKKLQDVHNY
modifications: Nle at 8 and 21; C-terminal amide
notes: also called [Nle^8,21,Tyr^34]rat(r)PTH(1-34)NH2; control PTH(1-34) analog
B2 was tested, and the “R0:RG” value [2] was 5, the “IP in COS-7/hPTHR cells, EC50” value [4] was 18 nM and the “IP in COS-7/hPTHR cells, Emax” value [4] was 2410 cpm/well. For the same binder, the “cAMP in HKRK-B64 cells, EC50” value [4] was 5.1 nM, the “cAMP in HKRK-B64 cells, Emax” value [4] was 55 picomole/well and the “delayed cAMP response 60 minutes after wash-out, % of maximum, HKRK-B64 cells” value [5] was 47%. For the same binder, the “t1/2 of decay of the cAMP signaling response, HKRK-B7 cells” value [5] was ~2 h.

B3: A18,22,K26-PTHrP(1-28)NH (peptide)
peptide: AVSEHQLLHDKGKSIQDARRRAFLHKLI-NH2
With B3 the IC50 [6] was 0.1 nM, the IC50 [7] was 0.1 nM and the “human PIR R0 (% parent)” value [8] was 178 % parent. For the same binder, the IC50 [9] was 1820 nM, the “human PIR RG (% parent)” value [10] was 193 % parent and the R0/RG selectivity [11] was 18100. It also gave an IC50 [12] of 1820 nM.

B4: E18,A22,K26-PTHrP(1-28)NH (peptide)
peptide: AVSEHQLLHDKGKSIQDERRRAFLHKLI-NH2
For B4, the IC50 [6] was 0.24 nM, the IC50 [7] was 0.24 nM and the “human PIR R0 (% parent)” value [8] was 68.8 % parent. The IC50 [9] was 9240 nM, the “human PIR RG (% parent)” value [10] was 145 % parent and the R0/RG selectivity [11] was 38300. For the same binder, the IC50 [12] was 9240 nM.

B5: A20,Mc-PTH(1-34)OH (peptide)
peptide: AVAEIQLMHQRAKWLNSMRAVEWLRKKLQDVHNF-OH
notes: Mc = A1,3,12,Q10,R11,W14,R19
B5 was tested, and the IC50 [13] was 0.4 nM, the R0/RG ratio [14] was 80 and the IC50 [15] was 31.9 nM.

B6: F23,Mc-PTH(1-34)OH (peptide)
peptide: AVAEIQLMHQRAKWLNSMRRVEFLRKKLQDVHNF-OH
notes: Mc = A1,3,12,Q10,R11,W14,R19
For B6, the IC50 [13] was 0.23 nM, the R0/RG ratio [14] was 5 and the IC50 [15] was 1.2 nM.

B7: rPTH(1-34)NH2 (peptide)
peptide: AVSEIQLMHNLGKHLASVERMQWLRKKLQDVHNF-NH2
notes: also called r(rat)PTH(1-34)NH2; rat-PTH(1-34)
With B7 the IC50 [1] was 0.34 nM, the “R0:RG” value [2] was 7 and the “cAMP in ROS17/2.8 cells, EC50” value [16] was 0.021 nM. It also gave an IC50 [3] of 2.3 nM.

B8: [His^5]rPTH(1-34)NH2 (peptide)
peptide: AVSEHQLMHNLGKHLASVERMQWLRKKLQDVHNF-NH2
For B8, the IC50 [1] was 0.19 nM, the “R0:RG” value [2] was 138 and the IC50 [3] was 26 nM.

B9: [A1,3,23]-PTH(1-34)OH (peptide)
peptide: AVAEIQLMHNLGKHLNSMERVEALRKKLQDVHNF-OH
notes: also called [A^1,A^3,A^23]-PTH(1-34)OH; [A1,3,23]-hPTH(1-34)
B9 was tested, and the IC50 [13] was 0.43 nM, the R0/RG ratio [14] was 4290 and the IC50 [15] was 1840 nM. The “cAMP in HKRK-B7 cells, EC50” value [17] was 1.93 nM and the “cAMP in HKRK-B7 cells, Max” value [17] was 66.6 pm/well.

B10: [His^5]hPTH(1-34)NH2 (peptide)
peptide: SVSEHQLMHNLGKHLNSMERVEWLRKKLQDVHNF-NH2
For B10, the IC50 [1] was 0.76 nM, the “R0:RG” value [2] was 160 and the “delayed cAMP response 60 minutes after wash-out, % of maximum, HKRK-B64 cells” value [5] was 34%. It also gave an IC50 [3] of 122 nM.

B11: [His^5,Nle^8,21,Tyr^34]rPTH(1-34)NH2 (peptide)
peptide: AVSEHQL[Nle]HNLGKHLASVER[Nle]QWLRKKLQDVHNY-NH2
modifications: N-terminus assumed
SMILES: CCCC[C@H](NC(=O)[C@H](CC(C)C)NC(=O)[C@H](CCC(N)=O)NC(=O)[C@H](Cc1c[nH]cn1)NC(=O)[C@H](CCC(=O)O)NC(=O)[C@H](CO)NC(=O)[C@@H](NC(=O)[C@H](C)N)C(C)C)C(=O)N[C@@H](Cc1c[nH]cn1)C(=O)N[C@@H](CC(N)=O)C(=O)N[C@@H](CC(C)C)C(=O)NCC(=O)N[C@@H](CCCCN)C(=O)N[C@@H](Cc1c[nH]cn1)C(=O)N[C@@H](CC(C)C)C(=O)N[C@@H](C)C(=O)N[C@@H](CO)C(=O)N[C@H](C(=O)N[C@@H](CCC(=O)O)C(=O)N[C@@H](CCCNC(=N)N)C(=O)N[C@@H](CCCC)C(=O)N[C@@H](CCC(N)=O)C(=O)N[C@@H](Cc1c[nH]c2ccccc12)C(=O)N[C@@H](CC(C)C)C(=O)N[C@@H](CCCNC(=N)N)C(=O)N[C@@H](CCCCN)C(=O)N[C@@H](CCCCN)C(=O)N[C@@H](CC(C)C)C(=O)N[C@@H](CCC(N)=O)C(=O)N[C@@H](CC(=O)O)C(=O)N[C@H](C(=O)N[C@@H](Cc1c[nH]cn1)C(=O)N[C@@H](CC(N)=O)C(=O)N[C@@H](Cc1ccc(O)cc1)C(N)=O)C(C)C)C(C)C
notes: also called His^5-PTH(1-34); H^5-PTH(1-34)
With B11 the IC50 [1] was 0.094 nM, the “R0:RG” value [2] was 753 and the “IP in COS-7/hPTHR cells, EC50” value [4] was 30 nM. The “IP in COS-7/hPTHR cells, Emax” value [4] was 2230 cpm/well, the “cAMP in HKRK-B64 cells, EC50” value [4] was 2.7 nM and the “cAMP in HKRK-B64 cells, Emax” value [4] was 59 picomole/well. The IC50 [3] was 71 nM.

From patent publication US20110172153A1 (GENERAL HOSPITAL, published 2011)
